In publication PMC4330388:

Biological target: T1, PPR10 (Zea mays, UniProt B8Y6I0 96-786)
T1 sequence: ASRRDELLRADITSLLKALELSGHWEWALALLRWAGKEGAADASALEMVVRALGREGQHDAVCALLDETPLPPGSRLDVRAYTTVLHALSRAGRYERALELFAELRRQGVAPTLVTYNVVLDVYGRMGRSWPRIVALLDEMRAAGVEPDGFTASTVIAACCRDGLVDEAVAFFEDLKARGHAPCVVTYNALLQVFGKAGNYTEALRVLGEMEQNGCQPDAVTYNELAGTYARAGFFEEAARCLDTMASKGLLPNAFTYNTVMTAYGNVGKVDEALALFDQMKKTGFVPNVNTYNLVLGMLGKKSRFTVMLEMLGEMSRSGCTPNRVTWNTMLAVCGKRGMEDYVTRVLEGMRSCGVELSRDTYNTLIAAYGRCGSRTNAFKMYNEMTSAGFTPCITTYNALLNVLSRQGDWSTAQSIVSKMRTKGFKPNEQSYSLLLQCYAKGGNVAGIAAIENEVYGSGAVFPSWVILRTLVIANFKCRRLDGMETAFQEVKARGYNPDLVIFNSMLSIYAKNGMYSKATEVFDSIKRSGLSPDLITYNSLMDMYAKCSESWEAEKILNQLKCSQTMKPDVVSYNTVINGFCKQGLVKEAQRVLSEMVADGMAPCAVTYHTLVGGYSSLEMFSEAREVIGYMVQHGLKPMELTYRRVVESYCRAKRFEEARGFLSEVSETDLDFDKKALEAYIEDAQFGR
Experiment: SEC-SAXS

Binder: GUAUCCUUAACCAUUUC (ssRNA) [atpH RNA 17-mer]
- binding result: binds
